# Assay results taken from the supplement of paper PMC10724198.
# What was measured:
# [1] = system: Saccharomyces cerevisiae; assay: protein stability index of tFT-peptide fusion in wild type (PSI (0-1 scale)); higher = more stable (slower turnover); settings: genetic background: wild type
# [2] = system: Saccharomyces cerevisiae; assay: protein stability index of tFT-peptide fusion in deletion strain of DOA10 (PSI (0-1 scale)); higher = more stable (slower turnover)
# Method: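 MPS profiling in S. cerevisiae of two library types built from selected 12-aa C-degron peptides (IN1, IN2, LN1, LN3, VN2, R1-R5, W1-W3, Atg1 and Rpa12 C-termini): saturation mutagenesis libraries and C-terminal +1 capping libraries (13 aa). Each peptide is fused to the C-terminus of a sfGFP-mCherry timer, after a GGGS linker. Cells are FACS-sorted into 8 mCherry/sfGFP bins and sequenced. PSI runs from 0 (unstable) to 1 (stable), measured once in wild type and in the das1Δ or doa10Δ background.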
# [3] = system: Saccharomyces cerevisiae; assay: protein stability index of tFT-peptide fusion in deletion strain of DAS1 (PSI (0-1 scale)); higher = more stable (slower turnover)
# 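Throughout, for protein stability index of tFT-peptide fusion in deletion strain of DAS1: PSI is a weighted mean of each variant's read distribution over the sorted stability bins, computed only for variants having over 10 reads in total.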
# 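Throughout, for protein stability index of tFT-peptide fusion in deletion strain of DOA10: PSI per variant is the weighted mean of its sequencing read distribution over the sorted stability bins, counting only variants with over 10 reads summed across bins.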
# 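Throughout, for protein stability index of tFT-peptide fusion in wild type: PSI derived as read-weighted mean over the 8 sorting bins, only variants exceeding 10 total reads kept, mCherry placed adjacent to the peptide and sfGFP distal.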
Sequence,protein stability index [1],protein stability index [2],protein stability index [3]
RVTTLDAIYFRI,0.524,0.661,–
GLYMCSVGLWFR,0.184,0.534,–
RSLRVLLPLYTR,0.547,0.648,–
GFYMCSVGCWFR,0.204,0.632,–
RLLRVLLPLYFR,0.407,0.673,–
GLYMCSVGCWTR,0.555,0.601,–
CLVSLYILLFFR,0.174,0.347,–
RVTWLDAIYFRI,0.323,0.656,–
RVTRLDAIYWRI,0.385,0.684,–
RVTRLDAIYMRI,0.382,0.71,–
RVTRLDYIYFRI,0.179,0.538,–
CLVSLPILLFPR,0.628,0.654,–
RSWRVLLPLYFR,0.297,0.692,–
AITLPMCRLLLR,0.27,0.651,–
RQTRLDAIYFRI,0.505,0.703,–
AITMPMCPLLLR,0.285,0.677,–
RVTRLDAIYFRIY,0.123,0.242,–
RSLRVLLPLYFN,0.107,0.165,–
APTLPMCPLLLR,0.29,0.664,–
RVTRLDAIGFRI,0.69,0.696,–
RSTRLDAIYFRI,0.53,0.678,–
GLYMCSVGCWFRL,0.114,0.624,–
GLYMCVVGCWFR,0.217,0.354,–

Sequence,protein stability index [1],protein stability index [2],protein stability index [3]
MLYMCSVGCWFR,0.328,0.604,–
AITLPMFPLLLR,0.16,0.638,–
GLYMCHVGCWFR,0.279,0.629,–
RSLRVLLPLYFRG,0.324,0.694,–
RSLRVLLILYFR,0.23,0.38,–
CLVSLWILLFFR,0.149,0.365,–
CLYSLPILLFFR,0.0509,0.586,–
RLYMCSVGCWFR,0.382,0.644,–
RVTRLDEIYFRI,0.685,0.731,–
RSLRVLLPLHFR,0.517,0.714,–
RSLRVLLCLYFR,0.306,0.471,–
GLVSLPILLFFR,0.0632,0.608,–
GLYMCSVGCWFRH,0.271,0.616,–
RSLKVLLPLYFR,0.27,0.666,–
RSLRVLLPLYFE,0.524,0.64,–
CLVSLPILLFFRA,0.0659,0.475,–
RVTRLLAIYFRI,0.155,0.287,–
RVTRLDAIYFDI,0.7,0.734,–
RSLRVLLPLSFR,0.401,0.673,–
CLDSLPILLFFR,0.214,0.664,–
ASTLPMCPLLLR,0.408,0.668,–
CLVSLPILDFFR,0.638,0.678,–
CLVSLPILLFFRL,0.0549,0.512,–

Sequence,protein stability index [1],protein stability index [2],protein stability index [3]
DVTRLDAIYFRI,0.481,0.739,–
RVTRLRAIYFRI,0.159,0.314,–
CLVSLPILLFFRF,0.0553,0.483,–
AITLPMCSLLLR,0.212,0.656,–
AITWPMCPLLLR,0.226,0.7,–
RVTKLDAIYFRI,0.483,0.667,–
AITLPWCPLLLR,0.153,0.662,–
RVWRLDAIYFRI,0.246,0.543,–
CLVSLPILLGFR,0.391,0.653,–
GLYMCWVGCWFR,0.182,0.387,–
GLYMNSVGCWFR,0.351,0.704,–
AMTLPMCPLLLR,0.223,0.646,–
RSLRLLLPLYFR,0.289,0.656,–
RSLRVLAPLYFR,0.352,0.687,–
AITLPMCPLLLRA,0.171,0.3,–
GLYMCSVMCWFR,0.263,0.383,–
AITLPMCTLLLR,0.116,0.675,–
RSLRVLLPLYFF,0.364,0.502,–
GLHMCSVGCWFR,0.214,0.682,–
CLVSLPILNFFR,0.637,0.66,–
GLYMCLVGCWFR,0.254,0.406,–
AITLPMCPLLLRT,0.169,0.441,–
AITLPVCPLLLR,0.229,0.652,–

Sequence,protein stability index [1],protein stability index [2],protein stability index [3]
DLVSLPILLFFR,0.109,0.637,–
RVMRLDAIYFRI,0.302,0.656,–
CLVSLDILLFFR,0.265,0.355,–
CLVSLPILLFFF,0.304,0.42,–
AITLPMKPLLLR,0.297,0.659,–
AITLVMCPLLLR,0.547,0.679,–
AITLCMCPLLLR,0.487,0.665,–
GLYMCSVGCKFR,0.619,0.654,–
AITLPMCLLLLR,0.116,0.629,–
RSLMVLLPLYFR,0.34,0.637,–
AITLPMGPLLLR,0.186,0.688,–
CLVELPILLFFR,0.0526,0.625,–
RVTILDAIYFRI,0.545,0.663,–
RSKRVLLPLYFR,0.362,0.675,–
RSLRFLLPLYFR,0.322,0.632,–
RALRVLLPLYFR,0.353,0.669,–
RVTRLDAIYFRIH,0.087,0.143,–
GLYMCSVNCWFR,0.487,0.566,–
GLRMCSVGCWFR,0.248,0.676,–
GLYMCSVGCVFR,0.561,0.627,–
CLNSLPILLFFR,0.109,0.627,–
RSLRVLLMLYFR,0.218,0.468,–
GLYMCSVGCWER,0.632,0.656,–

Sequence,protein stability index [1],protein stability index [2],protein stability index [3]
AITLMMCPLLLR,0.302,0.612,–
AITCPMCPLLLR,0.297,0.643,–
RSLRVLVPLYFR,0.218,0.657,–
NLYMCSVGCWFR,0.414,0.657,–
RSMRVLLPLYFR,0.257,0.653,–
AITTPMCPLLLR,0.462,0.668,–
RSLRVMLPLYFR,0.217,0.625,–
RSLRNLLPLYFR,0.465,0.687,–
CLVSLPFLLFFR,0.0627,0.618,–
RVTRQDAIYFRI,0.553,0.698,–
GLYMFSVGCWFR,0.234,0.524,–
CLVSLPILLFFT,0.248,0.528,–
GLYMCSVQCWFR,0.354,0.416,–
AITLDMCPLLLR,0.346,0.68,–
GLYMCRVGCWFR,0.291,0.638,–
PSCAASFWRVVG,0.154,–,0.691
PDKRNHLGKLLN,0.428,–,0.593
LKILRQKMNHQNI,0.65,–,0.685
ARYRVGLWRGAS,0.567,–,0.668
LKIRRQKMNHQN,0.246,–,0.687
CTSCGYQFRTNN,0.496,–,0.692
AKWRVGLWRGAS,0.392,–,0.692
ARWRHGLWRGAS,0.666,–,0.685
